Assay results from the nanobody polyreactivity screen of Harvey et al. (2022).

Test: yeast display, Sf9 membrane polyspecificity reagent, FACS + sequencing; frameworks hold sequencing errors
In short: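 Genes from sorted yeast were amplified by colony PCR, read by MiSeq 2 × 250 sequencing and filtered on CDR length. These cells carried a synthetic nanobody library in Saccharomyces cerevisiae BJ5465 and were sorted by FACS into low and high (top ~1%) gates on anti-HA and streptavidin fluorescence. Polyreactivity is labelled according to the gate of origin.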

Sequence | polyreactivity (PSR sort gate)
QVQLVESGGGLVQAGGSLRLSCAASGRIFTTYAMGWYRQAPGKERELVARIRWRGGSTYYADSVKGRFTISRDNAKNTVYLKMNSLKPEDTAVYYCNADKYYGFDYWGQGTQVTVSS | high polyreactivity
QVQLVESGGGLVQAGGSLRLSCAASGRIFTTYVMGWYRQAPGKERELVAAISARGSTYYADSVKGRFTISRDNAKNTVYLQMNSLKPEDTAVYYCAAGHRLPVYYGYPRATYNYWGQGTQVTVSS | low polyreactivity
QVQLVESGGGLVQAGGSLRLSCAASGRIFTWYAMGWYRQAPGKERELVAAINASGGGTYADSVKGRFTISRDNAKNTVYLQMNSLKPEDTAVYYCNADIRAFYLYYSEGFSWRLDYWGQGTQVTVSS | high polyreactivity
QVQLVESGGGLVQAGGSLRLSCAASGRIFTWYAMGWYRQAPGKERELVATISTGGSTNYADSVKGRFTISRDNAKNTVYLQMNSLKPEDTAVYYCAAKWPWSPNAFYYWGQGTQVTVSS | high polyreactivity
QVQLVESGGGLVQAGGSLRLSCAASGRIFTYNAMGWSRQAPGKERELVAANTSSGGSTYYADSVKGRFTISRDYAKNTVYLQMNSLKPEDTAVYYCATVRRGRDYWGQGTQVTVSS | high polyreactivity
QVQLVESGGGLVQAGGSLRLSCAASGRIFTYNPMGWYRQAPGKERELVAAISTRGGTTRYADSVKGRFTISRDNAKNTVYLQMNSLKPEDTAVYSCNAVSRGSRWDGLVRLDYWGQGTQVTVSS | high polyreactivity
QVQLVESGGGLVQAGGSLRLSCAASGRIFTYNPMGWYRQAPGKERELVAVISRRGGSTYYADSVKGRFTISRDNAKNTVYLQMNSLKPEDTAVYYCAADLPSYPYEYWGQGTQVTVSS | low polyreactivity
QVQLVESGGGLVQAGGSLRLSCAASGRIFTYYAMGWYIQAPGKERELVASITGSGGSTDYADSVKGRFTISRDNAKNTVYLQRNSLKPEDTAVYYCAADGLSYGPLYNYDYWGQGTQVTVSS | low polyreactivity
QVQLVESGGGLVQAGGSLRLSCAASGRIFTYYAMGWYRQAPGKERELVAAISSGGSTYYADSGKGRFTISRDNAKNTVSLQMNSLKPEDTAVYYCAADTIYYFPYDYWGQGTQVTVSS | high polyreactivity
QVQLVESGGGLVQAGGSLRLSCAASGRIFTYYAMGWYRQAPGKERELVAAITSGGGSTSYADSVKGRFTISRDNAKNTVYLQMNSLKPEDTAVYYCATRRPFYGHNTYYWYNYWGQGTQVTVSS | high polyreactivity
QVQLVESGGGLVQAGGSLRLSCAASGRIFTYYGMGWYRQAPGKERELVAAISWSGGSTYYADSVKGRFTISRDNAKNTVYLQMNSLKPVDTAVYYCNAASRYGGDYWGQGTQVTVSS | high polyreactivity
QVQLVESGGGLVQAGGSLRLSCAASGRIFVDNAMGWYRQAPGKERELVAAINYSGGGTYYADSVKGRFTISRDNAKNTVYLQMNSLKPEDTAVYYCAADSDSFWGVPSYYWGQGTQVTVSS | low polyreactivity
QVQLVESGGGLVQAGGSLRLSCAASGRIFVFYAMGWYRQAPGKERELVAAITASSTRTYYADSVKGRFTISRDNAKNTFYLQMNSLKPEDTAVYYCAADRYYWGQGTQVTVSS | low polyreactivity
QVQLVESGGGLVQAGGSLRLSCAASGRIFVGNAKGWYRQAPRKERELVAAIDESGGSTYYADSVKGRFTISRDNAKTTVYLQMNSLKPEDTAGYYCNAVWFWLRYYKYEYWGQGTQVTVSS | high polyreactivity
QVQLVESGGGLVQAGGSLRLSCAASGRIFVGNAMGWYRQAPGKERELVAAITRSGSRTYYADSVKGRFTISRDNAKNTVYLQMISLKPEDTAVYYCNAPIRTWPGYDYWGQGTQVTVSS | high polyreactivity
QVQLVESGGGLVQAGGSLRLSCAASGRIFVGNTMGWYRQAPGKERELVAAITRSGGSTYYADSAKGRFTISRDNAKNTVYLQMNSLKPEDTAVYYCAARRRGDYWGQGTQVTVSS | high polyreactivity
QVQLVESGGGLVQAGGSLRLSCAASGRIFVGYAIGWYRQAPGKERELVAAINRSGSSTYYADSVKGRYTISRDNAKNTFYLQMNSLKPEDTAVYYCNARSGNRYGPRYDYWGQGTQVTVSS | high polyreactivity
QVQLVESGGGLVQAGGSLRLSCAASGRIFVGYAMGWYIQAPGKERELVAAINRSGSSTYYADSVKGRFTISRDNAKNTVYLQMNRLKPEDTAVYYCNARSGNRYGPRYDYWGQGTQVTVSS | high polyreactivity
QVQLVESGGGLVQAGGSLRLSCAASGRIFVGYAMGWYRQAPGKERELVAAISSDGGSTYYADSVKGRFTISRDNAKNTVYLQMNSLKPEDTAVYYCNAYYGRFPYYADDYWGQGTQVTVSS | low polyreactivity
QVQLVESGGGLVQAGGSLRLSCAASGRIFVGYYTMGWYRQAPGKERELVASITWGGGRTYYADSVKGRFTISRDNAKNTVYLQMNSLKPEDTAVYYCAAGYPANYYYLGQGTQVTVSS | high polyreactivity
QVQLVESGGGLVQAGGSLRLSCAASGRIFVHNAMGWYRQAPRKERELVAAISWSGGSTYYADSVKGRFTISRDNAKNTVYLQMNSLKPEDTAVYYCNALDPLYFRYDYWGQGTQVTVSS | low polyreactivity
QVQLVESGGGLVQAGGSLRLSCAASGRIFVHYAMGWYRQAPGKERELVAAISRSGGSTYYADSVKGRFTISRDTAKNTVYLQMNSLKPEDTAVYYCNTYPLSQFGPYWSGYDYWGQGTQVTVSS | high polyreactivity

Sequence | polyreactivity (PSR sort gate)
QVQLVESGGGLVQAGGSLRLSCAASGRIFVINAMGWYRQAPGKERELVAAISQSGGSTYYADSVKGRFTISRDNAKNTVYLQMNSLKPEDTAVYYCNALSNVPYDYWGQGTQVTVSS | low polyreactivity
QVQLVESGGGLVQAGGSLRLSCAASGRIFVINAMVWYRQAPGKERELVAGITSSGNTNYADSVKGRFTISRDNAKNTVYLQMNSLNPEDTAVYYCNAQVYLTWLTYWLYYPPNDYWGQGTQVTVSS | low polyreactivity
QVQLVESGGGLVQAGGSLRLSCAASGRIFVIYAMGWYRQAPGKERELVAVINDDGSTNYADSVKGRFTISRDNAKNTVYLQMNSLKPEDTAVYYCAARGGRPLIHHWPWYSWKYDYWGQGTQVTVSS | low polyreactivity
QVQLVESGGGLVQAGGSLRLSCAASGRIFVKYAMGWYRQAPGKERELVAAIRSGGSTYYADSVKGRFTISRDNAKNTVYLQMNRLKPEDTAVYYCAAERNKHHYYTEPYDYWGQGTQVTVSS | low polyreactivity
QVQLVESGGGLVQAGGSLRLSCAASGRIFVKYAMGWYRQARGKESELVAAISKSGGSTYYADSVKGRFTISRDNAKTTVYLQINILKPEDTAVYYCAADEYYQVSAYDYWGQGTQVTVSS | low polyreactivity
QVQLVESGGGLVQAGGSLRLSCAASGRIFVLNAMGWYRQAPGKERELVAAISGSGSRTYYADSVKGRFTISRDNAKNTVYLQMNSLKPEDTAVYYCNTVSRRSEHTYDYWGQGTQVTVSS | high polyreactivity
QVQLVESGGGLVQAGGSLRLSCAASGRIFVLNAMGWYRQAPGKERELVAGITDGGSTNYADSVKGRFTISRDNAKNTVYLEMNSLKPEDTAVYYCAAVVYEYLYDFQAFVEDAGYYWGQGTQVTVSS | low polyreactivity
QVQLVESGGGLVQAGGSLRLSCAASGRIFVLYTMGWYRQAPGKERELVAAISRRGGNTNYADSVKGRFTISRDNAKNTVYLQMNSLKPEDTAVYFCNARWTGARYYYYPMDYWGQGTQVTVSS | high polyreactivity
QVQLVESGGGLVQAGGSLRLSCAASGRIFVPNAMGWYRQAPGKERELVARISRSDGSTYYADSVKGRFTISRDNAKNTVYFPMNSLKPEDTAVYYCAASTTPRWWSFKYYYWGQGTQVTVSS | high polyreactivity
QVQLVESGGGLVQAGGSLRLSCAASGRIFVPYAMGWYRQAPGKERELVAGISWSGGSTYYADSVKGRFTISRDNAKNTVYLQMNNLKPEDTPVYYCAAAKRRRPFDYWGQGTQVTVSS | high polyreactivity
QVQLVESGGGLVQAGGSLRLSCAASGRIFVPYAMGWYRQAPGKVREFVAAISYRGGSTYYADSVKGRFTISRDNAKNTVYLQMNSLKPEDTAVYYCAKVIPYRGKVTLDYWGQGTQVTVSS | low polyreactivity
QVQLVESGGGLVQAGGSLRLSCAASGRIFVQYDMGWYRQAPGKERELVAAINDSGDITYYADSVKGRFTISRDNAKNTVYLQMNSLRPEDTAVYYCAASAAYYGFYKSVTYDYWGQGTQVTVSS | low polyreactivity
QVQLVESGGGLVQAGGSLRLSCAASGRIFVRNAMGWYRPAPGKERELVAGITRGGGTNFADSVKGSFTISRDNAKNTVYLQMNSLKPEVTAVYDCNALHRARLFGHYPYESWGHGTQVTVSS | high polyreactivity
QVQLVESGGGLVQAGGSLRLSCAASGRIFVRNAMGWYRQAPGKERELVAAISWSSGGPYYADSVKGRFTISRDNAKNTVYLQMNSLKPDDTAVYYCNADPSRAGDYWGQGTQVTVSS | low polyreactivity
QVQLVESGGGLVQAGGSLRLSCAASGRIFVRNAMGWYRQAPGKERELVADITNGGSTNYADSVKGRFTISRDNAKNTVYLQMNSLKPEDTAVYYCAADTLGVYDGDYWGQGTQVTVSS | low polyreactivity
QVQLVESGGGLVQAGGSLRLSCAASGRIFVRYAKGWYRQAPGKERELVAAISRSGGSTYYADSVKGRFTISRDNAKNTVYLQMNSLKPEDTAVYYCNAAYWRRYYQLEDYWGQGTQVTVSS | high polyreactivity
QVQLVESGGGLVQAGGSLRLSCAASGRIFVRYAMGWSRQAPGKEREMVAAISSSGGRTYYADSVKGRFTISRDNAKNTVYLQMNSLNAEDTAVYYCAARWVQYGVRYDYWGQGTQVTVSS | high polyreactivity
QVQLVESGGGLVQAGGSLRLSCAASGRIFVRYAMGWYRQAPGKERELVAAISKGGSSTYYADSVKGRFTISRDNAKNTVYLQMNSLKPEDTAVYYCAARVHGTGTLKYPNYYWGQGTQVTVSS | high polyreactivity
QVQLVESGGGLVQAGGSLRLSCAASGRIFVRYAMGWYRQAPGKERELVAAISYRGGSTYYADSVKGRFTISRDNAKNTVYLLMNSLKPEDTAVYYCAARNSYGNWSYYYWGQGTQVTLSS | high polyreactivity
QVQLVESGGGLVQAGGSLRLSCAASGRIFVRYAMGWYRQAPGKERELVATITKNGGRTYYADSVKGRFTISRDNAKNTVYLQMNSLKPEDTAVYYCAARPTYVADHLRYGYWGQGTQVTVSS | high polyreactivity
QVQLVESGGGLVQAGGSLRLSCAASGRIFVRYAMGWYRQAPGKESEFVADIDGGGGRTYADSVKGRFTISRDNAKNTVYLLMNSLKPEDTAVYYCNAYVYSIHWCDLYWSEYDYWGQGTQVTVSS | high polyreactivity
